Reference: paper doi:10.1101/2022.08.26.505460

Molecular target: FN3^WDR5-cpYFP fusion protein

Kd: 0.727 µM
Substance: WD40-repeat protein 5 (WDR5) (from UniProt P61964 31-334) (natural protein)
